Experimental data: PMC8881100, “Biochemical and Molecular Dynamics Study of a Novel GH 43 α-L-Arabinofuranosidase/β-Xylosidase From Caldicellulosiruptor saccharolyticus DSM8903” (Frontiers in Bioengineering and Biotechnology, 2022)

Substrate: O=[N+]([O-])c1ccc(O[C@@H]2O[C@@H](CO)[C@H](O)[C@H]2O)cc1
Test: purified protein
Type: biochemical, Caldicellulosiruptor saccharolyticus
Conditions: citric acid phosphate buffer pH 6, 70°C, 0.5 to 3.5 mM substrate

B1: CAX43 (GH43 α-L-arabinofuranosidase/β-xylosidase) (Caldicellulosiruptor saccharolyticus DSM 8903) (protein)
chain: MIPTLWDPNVDEERYKNPIIHADYSDPDVIRVGSDYFLVASSFNCVPGLPILHSRDLINWKIVNYAVERLPSPEYDTPQIGKGIWAPAIRYHEEKFYIYFSMPDDGIYVCYTDDPFGKWSDIHLVKAAKGWIDPCPFWDEDGNAYLVNAFAKSRIGFNSKLCVSRLSADGLRVLDEGKIVFDGAKTQPTIEGPKLYKRNGYYYIFAPAGGVKFGWQTVLRSKDIYGPYEEKIVLHQGKTKINGPHQGAWVETEKGEHWFVHFQDRGPYGRVVHLQPMRWEDNWPVIGVDIDGDGIGEPVEEYRKPNTNYKNEYDFYLECSDHFDKPQISLQWQWHANPQDNWYSLEKRKSYLRLYAVGNLTNNNKVKSIFFMPNLLLQKIPAPEFIAIVKLEVNFNKEGSYAGIIMSGSRYSSIGIKRGQKKLSLVQVLGDVKEDVIENTVAKMPIETSQVFLKISVKEGAVCKFSFSFDGKKFTDFGTEFIPQEAIWVGSKIGLFCINTSGKNGVIQSDYADFDYFKIENFRKEDEC
notes: C-terminal His6 tag; pEASY blunt E2, E. coli BL21 (C43); Ni-NTA purified
  Km: 1071 µM
  kcat: 234.674 s⁻¹
